Legend:
[1] = target: T1, variant of LAM2 in which glutamic acids at positions 8 and 61 were changed to lysine
T1 chain: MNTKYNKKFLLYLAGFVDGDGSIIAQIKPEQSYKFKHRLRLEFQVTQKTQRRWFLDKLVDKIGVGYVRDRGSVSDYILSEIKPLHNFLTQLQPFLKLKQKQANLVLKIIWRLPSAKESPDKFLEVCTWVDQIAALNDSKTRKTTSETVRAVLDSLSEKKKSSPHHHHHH

[2] = target: T2, HGH2
T2 chain: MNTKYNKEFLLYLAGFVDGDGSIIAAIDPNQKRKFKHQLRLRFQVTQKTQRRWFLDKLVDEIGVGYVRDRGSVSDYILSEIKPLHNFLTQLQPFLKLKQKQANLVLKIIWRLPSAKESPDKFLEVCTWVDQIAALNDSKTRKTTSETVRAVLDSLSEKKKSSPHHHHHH

[3] = target: T3, GLA2
T3 chain: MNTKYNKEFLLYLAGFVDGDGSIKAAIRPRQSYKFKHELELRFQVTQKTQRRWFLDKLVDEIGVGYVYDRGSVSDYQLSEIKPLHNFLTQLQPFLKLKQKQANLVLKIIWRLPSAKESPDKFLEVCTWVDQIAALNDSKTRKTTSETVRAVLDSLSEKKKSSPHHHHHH

[4] = target: T4, BRP2
T4 chain: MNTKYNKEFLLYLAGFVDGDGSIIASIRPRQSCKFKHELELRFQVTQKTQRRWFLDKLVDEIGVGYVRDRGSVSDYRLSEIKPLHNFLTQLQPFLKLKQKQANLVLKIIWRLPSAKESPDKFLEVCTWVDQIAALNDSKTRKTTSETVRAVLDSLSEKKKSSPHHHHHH

[5] = target: T5, MGC2
T5 chain: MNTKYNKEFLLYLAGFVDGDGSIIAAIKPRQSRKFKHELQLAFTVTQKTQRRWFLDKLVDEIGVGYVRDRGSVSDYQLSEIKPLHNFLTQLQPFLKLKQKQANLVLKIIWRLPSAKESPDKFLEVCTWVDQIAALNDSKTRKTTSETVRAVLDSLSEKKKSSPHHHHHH

[6] = target: T6, URA2
T6 chain: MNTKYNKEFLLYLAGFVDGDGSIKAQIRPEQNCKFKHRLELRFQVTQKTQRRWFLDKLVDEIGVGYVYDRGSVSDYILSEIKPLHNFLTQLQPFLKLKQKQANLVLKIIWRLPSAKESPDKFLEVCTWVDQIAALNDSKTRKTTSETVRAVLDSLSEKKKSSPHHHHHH

[7] = target: T7, LAM2
T7 chain: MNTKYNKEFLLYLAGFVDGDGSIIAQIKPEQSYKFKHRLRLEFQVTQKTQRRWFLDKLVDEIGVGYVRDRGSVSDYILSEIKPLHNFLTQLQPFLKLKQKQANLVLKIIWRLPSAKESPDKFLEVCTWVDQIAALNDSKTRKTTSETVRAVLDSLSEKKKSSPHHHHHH

[8] = target: T8, HGH2 (partner of CYP in the CYP/HGH2 heterodimer, the 44th table)
T8 chain: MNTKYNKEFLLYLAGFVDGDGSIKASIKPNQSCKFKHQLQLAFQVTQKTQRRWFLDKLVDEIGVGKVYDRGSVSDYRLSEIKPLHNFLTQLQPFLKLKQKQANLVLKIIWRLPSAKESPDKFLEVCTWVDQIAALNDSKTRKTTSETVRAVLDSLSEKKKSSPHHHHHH

[9] = target: T9, MYD2
T9 chain: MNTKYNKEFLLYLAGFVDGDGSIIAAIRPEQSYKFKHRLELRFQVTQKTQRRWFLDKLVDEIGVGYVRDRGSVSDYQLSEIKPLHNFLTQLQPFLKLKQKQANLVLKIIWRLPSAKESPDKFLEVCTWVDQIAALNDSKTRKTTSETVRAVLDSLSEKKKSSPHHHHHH

[10] = target: T10, ACH2
T10 chain: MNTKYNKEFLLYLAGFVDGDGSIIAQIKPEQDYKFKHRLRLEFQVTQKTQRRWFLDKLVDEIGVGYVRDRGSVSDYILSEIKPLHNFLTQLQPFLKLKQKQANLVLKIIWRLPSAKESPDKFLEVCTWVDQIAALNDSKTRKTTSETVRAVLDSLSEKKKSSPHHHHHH

[11] = target: T11, CCR2
T11 chain: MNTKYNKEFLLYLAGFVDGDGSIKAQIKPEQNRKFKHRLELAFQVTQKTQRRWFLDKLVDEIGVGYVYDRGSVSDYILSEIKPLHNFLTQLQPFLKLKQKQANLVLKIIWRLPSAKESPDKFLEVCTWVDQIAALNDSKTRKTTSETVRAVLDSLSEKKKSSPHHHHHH

[12] = target: T12, CF2
T12 chain: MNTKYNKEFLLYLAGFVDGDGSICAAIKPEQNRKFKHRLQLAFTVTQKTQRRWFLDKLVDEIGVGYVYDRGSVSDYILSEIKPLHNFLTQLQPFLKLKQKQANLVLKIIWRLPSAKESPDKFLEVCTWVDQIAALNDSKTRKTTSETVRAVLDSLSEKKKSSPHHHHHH

B1: variant of the LAM1 enzyme in which lysines at positions 7, 57, and 96 were changed to glutamic acids (protein)
chain: MNTKYNEEFLLYLAGFVDGDGSIIAQIDPRQCRKFKHELRLRFQVTQKTQRRWFLDELVDEIGVGYVRDRGSVSDYILSEIKPLHNFLTQLQPFLELKQKQANLVLKIIWRLPSAKESPDKFLEVCTWVDQIAALNDSKTRKTTSETVRAVLDSLSEKKKSSPHHHHHH
- cleavage of the LAM1/LAM2 hybrid DNA site against the two palindromic sites by co-expressed interface variants [1]: the LAM1/LAM2 hybrid site was found to be cleaved preferentially over the two palindromic sites

B2: HGH1 (protein)
chain: MNTKYNKEFLLYLAGFVDGDGSIIAQIDPNQDCKFKHQLRLRFQVTQKTQRRWFLDKLVDEIGVGYVRDRGSVSDYILSEIKPLHNFLTQLQPFLKLKQKQANLVLKIIWRLPSAKESPDKFLEVCTWVDQIAALNDSKTRKTTSETVRAVLDSLSEKKKSSPHHHHHH
- cleavage of a linearized DNA substrate with the intended non-palindromic recognition sequence (SEQ ID NO: 24, Human Growth Hormone promoter) by the 1:1 mixture [2]: each rationally-designed meganuclease heterodimer cleaves its intended DNA site

B3: GLA1 (protein)
chain: MNTKYNKEFLLYLAGFVDGDGSIKAAIKPRQSYKFKHELSLAFQVTQKTQRRWFLDKLVDEIGVGYVYDRGSVSDYQLCEIKPLHNFLTQLQPFLKLKQKQANLVLKIIWRLPSAKESPDKFLEVCTWVDQIAALNDSKTRKTTSETVRAVLDSLSEKKKSSPHHHHHH
- cleavage of a linearized DNA substrate with the intended non-palindromic recognition sequence (SEQ ID NO: 32, Arabidopsis GL2 gene) by the 1:1 mixture [3]: each rationally-designed meganuclease heterodimer cleaves its intended DNA site

B4: BRP1 (protein)
chain: MNTKYNKEFLLYLAGFVDGDGSIKAQIRPRQCRKFKHELELAFQVTQKTQRRWFLDKLVDEIGVGKVYDRGSVSDYELSEIKPLHNFLTQLQPFLKLKQKQANLVLKIIWRLPSAKESPDKFLEVCTWVDQIAALNDSKTRKTTSETVRAVLDSLSEKKKSSPHHHHHH
- cleavage of a linearized DNA substrate with the intended non-palindromic recognition sequence (SEQ ID NO: 33, Arabidopsis BP1 gene) by the 1:1 mixture [4]: each rationally-designed meganuclease heterodimer cleaves its intended DNA site

B5: MGC1 (protein)
chain: MNTKYNKEFLLYLAGFVDGDGSIKAQIKPNQCYKFKHQLQLAFQVTQKTQRRWFLDKLVDEIGVGYVYDRGSVSDYILSEIKPLHNFLTQLQPFLKLKQKQANLVLKIIWRLPSAKESPDKFLEVCTWVDQIAALNDSKTRKTTSETVRAVLDSLSEKKKSSPHHHHHH
- cleavage of a linearized DNA substrate with the intended non-palindromic recognition sequence (SEQ ID NO: 34, Nicotiana tabacum Magnesium Chelatase gene) by the 1:1 mixture [5]: each rationally-designed meganuclease heterodimer cleaves its intended DNA site

B6: URA1 (protein)
chain: MNTKYNKEFLLYLAGFVDGDGSIIAQIKPNQSCKFKHQLRLAFTVTQKTQRRWFLDKLVDEIGVGYVRDRGSVSDYILSEIKPLHNFLTQLQPFLKLKQKQANLVLKIIWRLPSAKESPDKFLEVCTWVDQIAALNDSKTRKTTSETVRAVLDSLSEKKKSSPHHHHHH
- cleavage of a linearized DNA substrate with the intended non-palindromic recognition sequence (SEQ ID NO: 36, Saccharomyces cerevisiae URA3 gene) by the 1:1 mixture [6]: each rationally-designed meganuclease heterodimer cleaves its intended DNA site

B7: LAM1 (protein)
chain: MNTKYNKEFLLYLAGFVDGDGSIIAQIDPRQCRKFKHELRLRFQVTQKTQRRWFLDKLVDEIGVGYVRDRGSVSDYILSEIKPLHNFLTQLQPFLKLKQKQANLVLKIIWRLPSAKESPDKFLEVCTWVDQIAALNDSKTRKTTSETVRAVLDSLSEKKKSSPHHHHHH
- cleavage of the non-palindromic LAM1/LAM2 hybrid DNA site (SEQ ID NO: 22) by enzymes co-expressed from an operon in E. coli [7]: The co-expressed enzyme mixture was found to cleave all three sites, including the LAM1/LAM2 hybrid site
- cleavage of the non-palindromic LAM1/LAM2 hybrid DNA site (SEQ ID NO: 22) by purified enzymes mixed 1:1 and incubated at 42 C for 20 minutes [7]: The 1:1 mixture of LAM1 and LAM2, however, cleaves all three DNA sites

B8: CYP (protein)
chain: MNTKYNKEFLLYLAGFVDGDGSIIAAIKPNQDYKFKHQLRLAFQVTQKTQRRWFLDKLVDEIGVGYVYDRGSVSDYQLSEIKPLHNFLTQLQPFLKLKQKQANLVLKIIWRLPSAKESPDKFLEVCTWVDQIAALNDSKTRKTTSETVRAVLDSLSEKKKSSPHHHHHH
- cleavage of a linearized DNA substrate with the intended non-palindromic recognition sequence (SEQ ID NO: 35, Nicotiana tabacum CYP82E4 gene) by the 1:1 mixture [8]: each rationally-designed meganuclease heterodimer cleaves its intended DNA site

B9: MYD1 (protein)
chain: MNTKYNKEFLLYLAGFVDGDGSIIAQIRPRQSYKFKHELELAFQVTQKTQRRWFLDKLVDEIGVGKVRDRGSVSDYELSEIKPLHNFLTQLQPFLKLKQKQANLVLKIIWRLPSAKESPDKFLEVCTWVDQIAALNDSKTRKTTSETVRAVLDSLSEKKKSSPHHHHHH
- cleavage of a linearized DNA substrate with the intended non-palindromic recognition sequence (SEQ ID NO: 27, human DM kinase gene) by the 1:1 mixture [9]: each rationally-designed meganuclease heterodimer cleaves its intended DNA site

B10: ACH1 (protein)
chain: MNTKYNKEFLLYLAGFVDGDGSIIAAIDPEQDCKFKHRLRLRFQVTQKTQRRWFLDKLVDEIGVGYVRDRGSVSDYQLSEIKPLHNFLTQLQPFLKLKQKQANLVLKIIWRLPSAKESPDKFLEVCTWVDQIAALNDSKTRKTTSETVRAVLDSLSEKKKSSPHHHHHH
- cleavage of a linearized DNA substrate with the intended non-palindromic recognition sequence (SEQ ID NO: 23, human FGFR3 gene) by the 1:1 mixture [10]: each rationally-designed meganuclease heterodimer cleaves its intended DNA site

B11: CCR1 (protein)
chain: MNTKYNKEFLLYLAGFVDGDGSIKAQIRPRQNYKFKHELELEFQVTQKTQRRWFLDKLVDEIGVGYVYDRGSVSDYILSEIKPLHNFLTQLQPFLKLKQKQANLVLKIIWRLPSAKESPDKFLEVCTWVDQIAALNDSKTRKTTSETVRAVLDSLSEKKKSSPHHHHHH
- cleavage of a linearized DNA substrate with the intended non-palindromic recognition sequence (SEQ ID NO: 26, human CCR5 gene) by the 1:1 mixture [11]: each rationally-designed meganuclease heterodimer cleaves its intended DNA site

B12: CF1 (protein)
chain: MNTKYNKEFLLYLAGFVDGDGSICAQIKPNQSYKFKHQLQLAFQVTQKTQRRWFLDKLVDEIGVGYVHDRGSVSDYILSEIKPLHNFLTQLQPFLKLKQKQANLVLKIIWRLPSAKESPDKFLEVCTWVDQIAALNDSKTRKTTSETVRAVLDSLSEKKKSSPHHHHHH
- cleavage of a linearized DNA substrate with the intended non-palindromic recognition sequence (SEQ ID NO: 25, human CFTR deltaF508 allele) by the 1:1 mixture [12]: each rationally-designed meganuclease heterodimer cleaves its intended DNA site

Reference: patent US20110033935
